# ± gives the standard deviation of the averaged measurements.
# Experiment: total protein half-life in vivo (active degradation + dilution); higher = more stable protein
# [1] = E. coli NCM3722 delta-clpP delta-lon delta-hslV, growth: N-lim chemostat, doubling time 6 h
# [2] = E. coli NCM3722 delta-smpB, growth: N-lim chemostat, doubling time 6 h
# [3] = E. coli NCM3722 delta-clpP, growth: N-lim chemostat, doubling time 6 h
# [4] = E. coli NCM3722 delta-lon, growth: N-lim chemostat, doubling time 6 h
# [5] = wild type E. coli NCM3722, growth: C-lim chemostat, doubling time 3 h
# [6] = wild type E. coli NCM3722, growth: C-lim chemostat, doubling time 6 h
# [7] = wild type E. coli NCM3722, growth: C-lim chemostat, doubling time 12 h
# [8] = wild type E. coli NCM3722, growth: N-lim chemostat, doubling time 6 h
# [9] = wild type E. coli NCM3722, growth: N-lim chemostat, doubling time 12 h
# [10] = wild type E. coli NCM3722, growth: P-lim chemostat, doubling time 6 h
# [11] = wild type E. coli NCM3722, growth: P-lim chemostat, doubling time 12 h
# [12] = E. coli NCM3722 delta-hslV, growth: N-lim chemostat, doubling time 6 h
Sequence,total protein half-life in vivo [1],total protein half-life in vivo [2],total protein half-life in vivo [3],total protein half-life in vivo [4],total protein half-life in vivo [5],total protein half-life in vivo [6],total protein half-life in vivo [7],total protein half-life in vivo [8],total protein half-life in vivo [9],total protein half-life in vivo [10],total protein half-life in vivo [11],total protein half-life in vivo [12]
MRSPICHLFSAINSSPFKIAPEKEQDLKTIVDDKKIIISVVSEPGFNIRVRKNESNNSHEIVLTVASLEYIWAFSNFFWVFTQEYSKSQKNNDEHFDLTGKNRLKKSDELLKWARKNLQTTGCESWPKKCPKPEAYLQGSEDSQVASEIFLCAIAWILHHEISHVVLQHPLVTTAFSTQEEREADSHATKWILGNLYESAPELKKRALGIATAVLCIQSLEVENYFCLQNTHPAAYERIYSNISCYPVGNEELIEALCTVMLQYLFHGKNINVNLDGESFSSILGDLLCDISRLTSN,4.49 ± 0.37 h,1.26 h,,,,,,,,,,
MRTLQGWLLPVFMLPMAVYAQEATVKEVHDAPAVRGSIIANMLQEHDNPFTLYPYDTNYLIYTQTSDLNKEAIASYDWAENARKDEVKFQLSLAFPLWRGILGPNSVLGASYTQKSWWQLSNSEESSPFRETNYEPQLFLGFATDYRFAGWTLRDVEMGYNHDSNGRSDPTSRSWNRLYTRLMAENGNWLVEVKPWYVVGNTDDNPDITKYMGYYQLKIGYHLGDAVLSAKGQYNWNTGYGGAELGLSYPITKHVRLYTQVYSGYGESLIDYNFNQTRVGVGVMLNDLF [P0A921],6.42 ± 0.11 h,5.96 ± 0.66 h,6.15 ± 0.48 h,7.24 ± 0.85 h,3.01 ± 0.048 h,6.37 ± 1.1 h,14.2 ± 0.33 h,6.28 ± 0.44 h,13.3 ± 0.75 h,6.13 ± 0.1 h,14.2 ± 0.75 h,
MRTQWPSPAKLNLFLYITGQRADGYHTLQTLFQFLDYGDTISIELRDDGDIRLLTPVEGVEHEDNLIVRAARLLMKTAADSGRLPTGSGANISIDKRLPMGGGLGGGSSNAATVLVALNHLWQCGLSMDELAEMGLTLGADVPVFVRGHAAFAEGVGEILTPVDPPEKWYLVAHPGVSIPTPVIFKDPELPRNTPKRSIETLLKCEFSNDCEVIARKRFREVDAVLSWLLEYAPSRLTGTGACVFAEFDTESEARQVLEQAPEWLNGFVAKGANLSPLHRAML,,4.04 ± 0.42 h,4.11 ± 0.64 h,4.25 ± 0.41 h,2.95 ± 0.33 h,,10.5 ± 0.63 h,4.43 ± 0.23 h,6.789 ± 0.062 h,5.31 ± 0.33 h,10.47 ± 0.049 h,4.05 ± 0.64 h
MRTTIAVVLGAISLTSAFVFADKPDVARSANDEVSTLFFGHDDRVPVNDTTQSPWDAVGQLETASGNLCTATLIAPNLALTAGHCLLTPPKGKADKAVALRFVSNKGLWRYEIHDIEGRVDPTLGKRLKADGDGWIVPPAAAPWDFGLIVLRNPPSGITPLPLFEGDKAALTAALKAAGRKVTQAGYPEDHLDTLYSHQNCEVTGWAQTSVMSHQCDTLPGDSGSPLMLHTDDGWQLIGVQSSAPAAKDRWRADNRAISVTGFRDKLDQLSQK,5.08 ± 0.47 h,4.76 ± 0.16 h,5.58 ± 0.3 h,5.8 ± 0.71 h,2.07 ± 0.13 h,4.406 ± 0.0069 h,9.64 ± 2.3 h,5.29 ± 0.23 h,10.9 ± 0.45 h,6.23 ± 0.28 h,11.4 ± 1.1 h,6.26 ± 0.068 h
MRTTSFAKVAALCGLLALSGCASKITQPDKYSGFLNNYSDLKETTSATGKPVLRWVDPSFDQSKYDSIVWNPITYYPVPKPSTQVGQKVLDKILNYTNTEMKEAIAQRKPLVTTAGPRSLIFRGAITGVDTSKEGLQFYEVVPVALVVAGTQMATGHRTMDTRLYFEGELIDAATNKPVIKVVRQGEGKDLNNESTPMAFENIKQVIDDMATDATMFDVNKK,5.89 ± 0.069 h,5.98 ± 0.26 h,,,3.33 ± 0.073 h,6.02 ± 0.91 h,10.3 ± 0.9 h,6.07 ± 0.31 h,12.8 ± 0.57 h,5.82 ± 0.2 h,13 ± 0.29 h,6.47 ± 0.16 h
MRTVKVFEEAWPLHTPFVIARGSRSEARVVVVELEEEGIKGTGECTPYPRYGESDASVMAQIMSVVPQLEKGLTREELQKILPAGAARNALDCALWDLAARRQQQSLADLIGITLPETVITAQTVVIGTPDQMANSASTLWQAGAKLLKVKLDNHLISERMVAIRTAVPDATLIVDANESWRAEGLAARCQLLADLGVAMLEQPLPAQDDAALENFIHPLPICADESCHTRSNLKALKGRYEMVNIKLDKTGGLTEALALATEARAQGFSLMLGCMLCTSRAISAALPLVPQVSFADLDGPTWLAVDVEPALQFTTGELHL,,4.33 ± 0.052 h,,5.93 ± 1.4 h,2.73 ± 0.18 h,6.31 ± 1.1 h,9.313 ± 0.054 h,4.81 ± 0.22 h,11.2 ± 2.8 h,5.54 ± 0.5 h,12.119 ± 0.011 h,

# Source: the supplement of paper PMC11246515
